The values below come from US20240254220A1 (CENTRICSBIO, published 2024).

In one experiment the target is T1, mouse CD300c (mouse).
T1 sequence (A2A7V7 whole entry, looked up): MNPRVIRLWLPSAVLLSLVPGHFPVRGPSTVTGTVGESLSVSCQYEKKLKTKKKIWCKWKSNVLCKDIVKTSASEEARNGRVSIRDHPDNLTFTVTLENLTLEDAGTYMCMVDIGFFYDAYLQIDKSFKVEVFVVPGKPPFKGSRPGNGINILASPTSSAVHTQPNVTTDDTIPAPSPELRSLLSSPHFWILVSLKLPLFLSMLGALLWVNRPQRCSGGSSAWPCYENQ
Description: cell-based or functional assay.

The target in experiment [1] is T2, CD300c antigen (11832-H08H, Sino Biological) (human, UniProt Q08708 21-183).
T2 construct: Bought antigen; also called CD300c protein; CD300 antigen-like family member C
T2 sequence (looked up): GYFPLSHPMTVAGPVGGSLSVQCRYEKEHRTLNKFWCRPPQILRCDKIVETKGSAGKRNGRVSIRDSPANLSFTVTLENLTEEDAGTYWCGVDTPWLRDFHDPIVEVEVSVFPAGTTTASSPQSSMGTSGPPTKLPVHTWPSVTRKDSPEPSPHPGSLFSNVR
Description: binding ELISA, plate coated with CD300c antigen (8 µg/mL), HRP anti-Fc IgG detection. On the procedure:
In order to identify the antigen-binding ability of the anti-CD300c monoclonal antibodies produced in Example 1, binding ELISA was performed. Specifically, a CD300c antigen (11832-H08H, Sino Biological) or a CD300a antigen (12449-H08H, Sino Biological) in a coating buffer (0.1 M sodium carbonate, pH 9.0) was dispensed into an ELISA plate at a concentration of 8 μg/mL per well, followed by incubation at room temperature for 3 hours to allow the antigen to be bound to the plate. The unbound antigens were removed by washing three times using phosphate buffered saline-Tween 20 (PBST), and then 300 μL of PBST supplemented with 5% bovine serum albumin (BSA) was added to each well, followed by incubation at room temperature for 1 hour and then washing using PBST. Then, an anti-CD300c monoclonal antibody was diluted in quadruplicate and added thereto, followed by incubation for 1 hour at room temperature for antigen binding. After 1 hour, washing was performed three times using PBST to remove unbound anti-CD300c monoclonal antibody, and then 4 μg/mL of an antibody for detection (HRP conjugated anti-Fc IgG) was added, followed by incubation again at room temperature for 1 hour. Subsequently, the unbound antibody for detection was removed using PBST, and then TMB solution was added, followed by incubation for 10 minutes for development. Then, 2 N sulfuric acid solution was added to terminate the development reaction, and the absorbance was measured at 450 nm to identify the antibodies specifically binding to the CD300c antigen.
In general terms: ELISA stands for enzyme-linked immunosorbent assay.

For experiment [2], the target named is T2, CD300c antigen (11832-H08H, Sino …). In words: selection ELISA of Example 1.2, scFv periplasmic extract on coated CD300c antigen. Here is the method: In order to select anti-CD300c monoclonal antibodies specifically binding, with high binding affinity, to a CD300c antigen, ELISA was performed using the library pool obtained by the same method as in Example 1.1. More specifically, each of a CD300c antigen and a CD300a antigen in a coating buffer (0.1 M sodium carbonate, pH 9.0) was dispensed into an ELISA plate at a concentration of 5 μg/mL per well, followed by incubation at room temperature for 3 hours, to allow the antigen to bind to the plate. The unbound antigens were removed by washing three times using phosphate buffered saline-Tween 20 (PBST), and then 350 μL of PBST supplemented with 2% bovine serum albumin (BSA) was added to each well, followed by incubation at room temperature for 1 hour and then washing again using PBST. Then, 25 μg of a periplasmic extract containing scFv obtained by the same method as in Example 1.1 was added thereto, followed by incubation for 1 hour at room temperature for antigen binding. After 1 hour, the unbound scFv was removed by washing three times using PBST, and then 4 μg/mL of an antibody for detection was added, followed by incubation again at room temperature for 1 hour. Subsequently, the unbound antibodies for detection were removed using PBST, and then HRP-conjugated anti-rabbit IgG was added, followed by incubation at room temperature for 1 hour. The unbound antibodies were removed again using PBST. Subsequently, 3,3′,5,5′-tetramethylbenzidine (TMB) solution was added, followed by incubation for 10 minutes for development. Then, 2 N sulfuric acid solution was added to terminate the development reaction, and the absorbance was measured at 450 nm to identify the antibodies specifically binding to the CD300c antigen.

B1: CL10 (antibody, V domains shown)
VH: EVQLLESGGGLVQPGGSLRLSCAASGFTFSSYGMHWVRQAPGKGLEWVSAISGSGGSTYYADSVKGRFTISRDNSKNTLYLQMNSLRAEDTAVYYCASGYGLMDVWGQGTLVTVSS
VL: QSVLTQPPSASGTPGQRVTISCTRSSGIIASNYVQWYQQLPGTAPKLLIYRNNQRPSGVPDRFSGSKSGTSASLAISGLRSEDEADYYCSSYAGNNNLVFGGGTKLTVL
notes: also called anti-CD300c monoclonal antibody CL10; CB301 antibody CL10
On to B1, for which the “cancer cell proliferation inhibitory effect, CT26 mouse colon cancer cells, 10 ug/mL antibody, 5 days, CCK-8” value with mouse CD300c was 15%. The EC50 (usually the concentration needed to bring the measured effect to its halfway point) in experiment [1] is 0.039 µg/mL.

B2: CB301_OPALTL_E6 (antibody, V domains shown)
VH: EVQLLESGGGLVQPGGSLRLSCAASGFTFSSYGMHWVRQAPGKGLEWVSAISGSGGYTYYADSVKGRFTISRDNSKNTLYLQMNSLRAEDTAVYYCARWHYSFDYWGQGTLVTVSS
VL: QSVLTQPPSASGTPGQRVTISCSGSSSNIGNNYVSWYQQLPGTAPKLLIYRNNQRPSGVPDRFSGSKSGTSASLAISGLRSEDEADYYCQSYDNSNVLFGGGTKLTVL
B2: the binding result in experiment [2] is reported as “binds”.

B3: CB301_OPALTL_B5 (antibody, V domains shown)
VH: EVQLLESGGGLVQPGGSLRLSCAASGFTFSHYAMSWVRQAPGKGLEWVSAISGSGGSTYYADSVKGRFTISRDNSKNTLYLQMNSLRAEDTAVYYCARGWDSPTLTYFDSWGQGTLVTVSS
VL: QSVLTQPPSASGTPGQRVTISCSGTSSNIGNNDVSWYQQLPGTAPKLLIYQDTKRPSGVPDRFSGSKSGTSASLAISGLRSEDEADYYCAAWDDSLSGPVFGGGTKLTVL
As for B3, in experiment [2], the binding result is recorded as “binds”.

B4: SL18 (antibody, V domains shown)
VH: RVQLLESGGGLVQPGGSLRLSCAASGFTFSDYHMHWVRQAPGKGLEWVSTISSSGGYTYYAESVKSRFTISRDNSKNTLYLQMNSLRAEDTAVYYCARSIRLPLDYWGQGTLVTVSS
VL: QSVLTQPPSASGTPGQRVTISCSGNNIGSKGVHWYQQLPGTAPKLLIYEDSKRPSGVRDRFSGSKSGTSASLAISGLRSEDEADYYCQSYDSTKGVVFGGGTKLTVL
notes: also called anti-CD300c monoclonal antibody SL18; CB301 antibody SL18
For B4, the “cancer cell proliferation inhibitory effect, CT26 mouse colon cancer cells, 10 ug/mL antibody, 5 days, CCK-8” value in the experiment with mouse CD300c worked out at 38%. The molecule also registered an EC50 in experiment [1] of 0.17 µg/mL.

B5: CB301_H3L1_F4 (antibody, V domains shown)
VH: EVQLLESGGGLVQPGGSLRLSCAASGFTFSGYAMSWVRQAPGKGLEWVSAISGSGGSTYYADSVKGRFTISRDNSKNTLYLQMNSLRAEDTAVYYCARSPSGLFDYWGQGTLVTVSS
VL: QSVLTQPPSASGTPGQRVTISCGGNNIGSKRVHWYQQLPGTAPKLLIYNTSNKHSGVPDRFSGSKSGTSASLAISGLRSEDEADYYCSSYLQQHSLFGGGTKLTVL
Turning to B5, the binding result in experiment [2] is reported as “binds”.
